Consider 4 molecules from PMC10270636.

Holding throughout (assay): SEC; TSK-Gel G2000SWXL 7.8 x 300 mm column, Waters Alliance HPLC, detection at 220 nm; lyophilizate dissolved in water for injection and diluted, measured directly; peaks assigned as aggregates, tetramer and monomer
Background: SEC sorts molecules by how far they enter the pores of the column.

For one series, the system named is P00805.
For series [1], the target named is Spectrila (recombinant E. coli-derived L-asparaginase) (E. coli), P00805.
Series [2] deals with Onconase (E. coli-derived L-asparaginase preparation from India) (E. coli), P00805.

In the case of “Onconase (E. coli-derived L-asparaginase preparation from India)”, the “percent tetramer (SEC peak area)” value with P00805 stood at 82.7%[*].

Take “Spectrila (recombinant E. coli-derived L-asparaginase)”: in the series with P00805, the “percent tetramer (SEC peak area)” value stood at 99.4%.

B1: Spectrila (recombinant E. coli-derived L-asparaginase), P00805 23-348 (enzyme)
chain: LPNITILATGGTIAGGGDSATKSNYTVGKVGVENLVNAVPQLKDIANVKGEQVVNIGSQDMNDDVWLTLAKKINTDCDKTDGFVITHGTDTMEETAYFLDLTVKCDKPVVMVGAMRPSTSMSADGPFNLYNAVVTAADKASANRGVLVVMNDTVLDGRDVTKTNTTDVATFKSVNYGPLGYIHNGKIDYQRTPARKHTSDTPFDVSKLNELPKVGIVYNYANASDLPAKALVDAGYDGIVSAGVGNGNLYKTVFDTLATAAKTGTAVVRSSRVPTGATTQDAEVDDAKYGFVASGTLNPQKARVLLQLALTQTKDPQQIQQIFNQY
modifications: not checked
Usually stoichiometry N stands for a count of units in the complex or per binding partner. Consider B1, for which the stoichiometry N in series [1] was 4.

B2: Onconase (E. coli-derived L-asparaginase preparation from India), P00805 23-348 (enzyme)
chain: LPNITILATGGTIAGGGDSATKSNYTVGKVGVENLVNAVPQLKDIANVKGEQVVNIGSQDMNDDVWLTLAKKINTDCDKTDGFVITHGTDTMEETAYFLDLTVKCDKPVVMVGAMRPSTSMSADGPFNLYNAVVTAADKASANRGVLVVMNDTVLDGRDVTKTNTTDVATFKSVNYGPLGYIHNGKIDYQRTPARKHTSDTPFDVSKLNELPKVGIVYNYANASDLPAKALVDAGYDGIVSAGVGNGNLYKTVFDTLATAAKTGTAVVRSSRVPTGATTQDAEVDDAKYGFVASGTLNPQKARVLLQLALTQTKDPQQIQQIFNQY
modifications: not checked
The molecule B2 yielded a stoichiometry N in series [2] of 4.
